Reference: the supplement of paper PMC10567573
± gives the standard deviation.

Experiment: protein stability index of a GFP-peptide fusion (GPS, HEK-293T) (PSI 1-6); higher = more stable
[1] = treatment: DMSO, c terminus: a fixed tail appended
[2] = treatment: MLN4924 1 uM, 8 h, c terminus: a fixed tail appended
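Further: 24-mer peptide tiles fused after GFP, lentivirally expressed, FACS-sorted into six equal bins by GFP/DsRed ratio, decoded by Illumina sequencing, PSI is the read-weighted mean bin number.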

Sequence	protein stability index [1]	protein stability index [2]	protein stability index (treatment: DMSO, c terminus: native)	protein stability index (treatment: MLN4924 1 uM, 8 h, c terminus: native)
FRKDSVLNILIQSLDWETFEQYCA [INTS3]	2.51 ± 0.61	2.04 ± 0.18	–	–
FRPKDQTSVGMSFVAGGISGTVAA [SLC25A39]	3 ± 0.11	2.96 ± 0.29	–	–
FSGSLVAALSATGPRFLAYFGSFA [TMEM175]	2.91 ± 0.11	2.61 ± 0.37	–	–
FSIPPTNHEIMPGGSVNITCVAVG [PTPRD]	2.22 ± 0.17	2.06 ± 0.14	–	–
FTLNPDKKTCRRINYCALNKPGCE [MATN2]	2.64 ± 0.64	2.96 ± 0.45	–	–
FVATFLRYAVVLNATWLVNSAAHL [SCD]	3.31 ± 0.7	2.97 ± 0.33	–	–
FVSIAQSEQESLLQQAQAQFRMAQ [SMG5]	2.68 ± 0.31	3.08 ± 0.47	–	–
FYPALWPQLRICLRVSPAEQPRLE [FBXO33]	2.39 ± 0.46	2.3 ± 0.27	–	–
FYSNLILQHEERETRQKKLEVAME [STK38L]	3.08 ± 0.2	3.08 ± 0.33	–	–
GAHSNAPITAHAEVEVVEEAKCCC [CSNK1G1]	4.79 ± 0.22	5.23 ± 0.21	–	–
GALGMSNRDSYFYAAIVAVVAVHV [VMA21]	2.77 ± 0.45	2.81 ± 0.22	–	–
GALTPTPAPTTTTATREEASTSLP [CLPTM1]	5.28 ± 0.33	5.58 ± 0.22	–	–
GANINAQTEETQETALTLACCGGF [ANKRD17]	4.63 ± 0.15	4.59 ± 0.31	–	–
GARLVAACSAWLCPGLRLPGSLAG [AUH]	2.55 ± 1.2	3.26 ± 0.84	–	–
GDSGFLVVRGGEVVHRSDEQQHYF [PPTC7]	3.75 ± 0.41	3.54 ± 0.23	–	–
GDTLRTFSLVLVLDLSKPNDLWPT [DYNC2LI1]	2.89 ± 0.37	2.82 ± 0.32	–	–
GERVAARGYWGDIATGPFVAFGIE [DNAAF3]	2.05 ± 0.3	2.35 ± 0.28	–	–
GFALDILFAIANGFSPSYEFFAVT [SLC22A15]	3.3 ± 0.042	3.29 ± 1.1	–	–
GFAVKALWGRTQEEAEELAKEMSV [GFOD1]	4.24 ± 0.13	4.07 ± 0.3	–	–
GFFDVLGNDRRREWAALGNMSKED [ACBD3]	3.85 ± 0.44	4.551 ± 0.018	–	–
GFLPWLMNEVEKTMEYSMVGRTVL [RSPH3]	2.8 ± 0.54	2.94 ± 0.41	–	–
GFLTVTNLGVENMNHYKKTTLEIH [PTPN9]	1.93 ± 0.59	1.92 ± 0.4	–	–
GGEFQCGLEAASVYSDHTNTNNLT [RNF180]	2.42 ± 0.36	2.42 ± 0.29	–	–

Sequence	protein stability index [1]	protein stability index [2]	protein stability index (treatment: DMSO, c terminus: native)	protein stability index (treatment: MLN4924 1 uM, 8 h, c terminus: native)
GGLATGIAGGLAGMGGIQNEKETM [KRT18]	4.95 ± 0.33	4.58 ± 0.39	–	–
GGTPHCEPCQLPSESPGSLSEVLA [DNAAF3]	4.19 ± 0.49	4.56 ± 0.33	–	–
GHSQEKTHSREKSSQESGEEAGSQ [CHGB]	5.52 ± 0.56	5.45 ± 0.33	–	–
GIKAQVALRLAELARRRRRRQARR [NOP53]	4.1 ± 0.34	3.85 ± 0.25	–	–
GIRLSENVIDRMKESSPSGSKSQR [CHCHD3]	4.65 ± 0.19	4.72 ± 0.2	–	–
GKAFPSGCSAVSEPASESVVGALP [TRAF3IP2]	4.33 ± 0.14	4.59 ± 0.24	–	–
GKDHEILRRRIENGAKELWFFLQS [FUT8]	2.08 ± 0.65	2.36 ± 0.27	–	–
GKIVGSLCAIAGVLTIALPVPVIV [KCNA1]	3.19 ± 0.34	3.22 ± 0.44	–	–
GKSFRQRPSLVIHLRIHTGEKPYK [ZNF449]	2.72 ± 0.53	2.61 ± 0.65	–	–
GKTDDTLALLNLACMMTITFLPYT [TMEM175]	3.21 ± 0.33	3.08 ± 0.16	–	–
GKTMELFCQTDQTCICYLCMFQEH [TRIM29]	2.34 ± 0.064	2.33 ± 0.25	–	–
GLAGFFASVAMICAIASGSELSES [SLC29A1]	3 ± 0.53	2.9 ± 0.37	–	–
GLDPEPLPLMDLCRRSVRLALGRE [SPSB1]	4.02 ± 0.61	3.62 ± 0.2	–	–
GLEAPRDLEAKEVTPRTALLTWTE [TNXB]	3.22 ± 0.4	4.95 ± 0.29	–	–
GLGPTSEPFPSSDDSPRSALAAAT [SPAG8]	4.95 ± 0.19	5.18 ± 0.038	–	–
GLRLRLPRRESLLRGLCRPLRPLL [C6orf223]	2.15 ± 0.13	2.2 ± 0.29	–	–
GMADVGTVCDPARSCAIVEDDGLQ [ADAMTS4]	4.62 ± 1.1	5.33 ± 0.088	–	–
GNDRRREWAALGNMSKEDAMVEFV [ACBD3]	4.11 ± 0.24	4.3 ± 0.26	–	–
GPEHATRLNGTAKGERRREPGGYD [DVL3]	5.13 ± 0.26	5.18 ± 0.19	–	–
GPPGRSIGGAAPSLGALDLLGPAT [SERTAD1]	3.79 ± 0.14	3.81 ± 0.11	–	–
GQFVMKTRRTLKGHGNKVLCMDWC [GNB5]	2.16 ± 0.32	2.32 ± 0.3	–	–
GQLVRNDSLWHRSDSAPRNKISRF [MFF]	3.66 ± 0.87	4.04 ± 0.21	–	–
GQVIWGMSWAKLARQATNLKVNFF [FBXO39]	2.2 ± 0.72	2.2 ± 0.52	–	–

Sequence	protein stability index [1]	protein stability index [2]	protein stability index (treatment: DMSO, c terminus: native)	protein stability index (treatment: MLN4924 1 uM, 8 h, c terminus: native)
GQWLGGRQIRTNWATRKPPAPKST [TIA1]	3.57 ± 0.3	3.73 ± 0.34	–	–
GRHAQTVETLLRHGAHINLQSLKF [RIPK4]	2.34 ± 0.14	2.65 ± 0.45	–	–
GRPGIVAWTLINLSFAAKQRELHS [DHCR7]	2.81 ± 0.31	3.02 ± 1	–	–
GSCGQGRTIRHVYCKTSDGRVVPE [ADAMTSL2]	3.66 ± 0.31	3.57 ± 0.58	–	–
GSGVIGRSWAMLFASGGFQVKLYD [CRYL1]	2.33 ± 0.31	–	–	–
GSHPQQTQKLEEIKENAQDTMRQI [TOR1AIP2]	5.27 ± 0.26	5.38 ± 0.24	–	–
GSQAGGSGSAGQYGSDQQHHLGSG [MYOZ1]	4.94 ± 0.23	5.17 ± 0.18	–	–
GTEITIAFDFDYGNCKYKVDCACL [KMT2E]	3.01 ± 0.52	2.39 ± 0.5	–	–
GTPGPFTKEGGMLAYYEVCSWKGA [CHIT1]	2.47 ± 0.17	2.55 ± 0.55	–	–
GVFKFLRSEAVAQLWGQKKKNSNM [ELF3]	2.83 ± 0.18	2.41 ± 0.33	–	–
GVKSRIQALRQMNEGAIDCVNYEG [DLC1]	3.77 ± 0.32	3.87 ± 0.36	–	–
GVSALCAICGDRATGKHYGASSCD [HNF4A]	3.6 ± 0.2	3.75 ± 0.45	–	–
GWAKHIPGFSTLSLADQMSLLQSA [ESRRG]	2.31 ± 0.22	2.5 ± 0.16	–	–
GYRGYQYILECDHHGGDYKHWREW [CRYBA1]	2.16 ± 0.25	1.93 ± 0.14	–	–
HEEVYFEPSSSKDSDENSKPSVDT [MIA2]	5.62 ± 0.33	5.48 ± 0.31	–	–
HFLENLDKSRKGELLKKSDLQKDF [PRIM1]	3.52 ± 0.21	3.95 ± 0.37	–	–
HGEGNHIYAYDAKIEIQTLTGLFK [CASP6]	2.17 ± 0.22	2.12 ± 0.33	–	–
HHCDDHLSLYQLSLERGTALFAQV [RSAD1]	2.22 ± 0.66	2.03 ± 0.2	–	–
HHHGRSRPDRSSQGGSLPSEEKGH [CHGB]	5.34 ± 0.06	5.31 ± 0.083	–	–
HLAVDKNTTCVGRYPVCKFPSLQV [FEM1C]	2.46 ± 0.25	2.44 ± 0.26	–	–
HLPVTFPGKDYDADRQCQLTFGPD [ADAMTS4]	4.12 ± 0.26	4.38 ± 0.24	–	–
HLTKKDLRVHLKMVDSFHRTSLQY [PPFIA4]	2.24 ± 0.25	2.11 ± 0.41	–	–
HLTVVAIFYGSGIFNYMRLGSTKL [OR3A1]	3.1 ± 0.62	2.76 ± 0.37	–	–

Sequence	protein stability index [1]	protein stability index [2]	protein stability index (treatment: DMSO, c terminus: native)	protein stability index (treatment: MLN4924 1 uM, 8 h, c terminus: native)
HNRVSKEDEDIYKLRHDLKKTSIT [PLK2]	4.02 ± 0.2	4.12 ± 0.081	–	–
HPKDGPSPGGTLMDLSERQEVSSV [DLC1]	5.15 ± 0.25	5.23 ± 0.21	–	–
HQCHKVIRGRYLVALGHAYHPEEF [PDLIM7]	2.17 ± 0.29	2.2 ± 0.62	–	–
HRGLRCSWEGLAVLDSLLLTLLPQ [RSAD1]	3.06 ± 0.41	3.07 ± 0.3	–	–
HSLRAVSTDPPHHDHHDEFCLMP [BEX1]	–	–	3 ± 0.6	3.76 ± 0.5
HSLVRSRHRIPEPEAAVLFRQMAT [TRIB3]	3.18 ± 0.13	3.31 ± 0.15	–	–
HTFRATFQEPLYPALRLWEGAISI [TRIM14]	2.85 ± 0.57	2.69 ± 0.71	–	–
HTQAENAEFMRNFQKGQVTRDGFK [HMOX1]	4.5 ± 0.17	4.54 ± 0.23	–	–
HTRSWAVLKLLLLLLLFGVAGGLV [LRRC59]	2.56 ± 0.44	2.44 ± 0.35	–	–
HTSSEYDMLREMFSDSRSNNDDDE [TAF7L]	5.57 ± 0.28	5.24 ± 0.53	–	–
HVPLQRLSLLVHNVSVMHKSLDNM [FBXO33]	2.01 ± 0.22	2.3 ± 0.12	–	–
HVPTVWAIDQYRVCQEVLERSRDV [RHOBTB1]	2.83 ± 0.22	3.08 ± 0.3	–	–
HVTVENVQELLPAACLLQLKGVKQ [KLHL12]	2.96 ± 0.33	3.15 ± 0.11	–	–
HWDGYSKGVNRKLGRTGLYPSYKV [FUT8]	2.5 ± 0.32	2.53 ± 0.18	–	–
IAQCQDSPTSGKFRRGSGSACSLL [MCOLN1]	3.4 ± 0.2	3.63 ± 0.2	–	–
IATATEIAYYSYIYSVVDLGMYQK [SLC19A2]	3.05 ± 0.33	2.94 ± 0.51	–	–
IDKSMTVVLTFITPMLNPLIYTLK [OR4A15]	3.67 ± 0.16	2.8 ± 1	–	–
IDLATWNFQFLPQVNGHPDPFDEI [PTPN9]	2.43 ± 0.22	2.54 ± 0.35	–	–
IDNAADLLIFGKELSAIGSDTTPL [SNX8]	3.22 ± 0.12	3.18 ± 0.48	–	–
IDRNLREDGEKAAREVKLLLLGAG [GNAI1]	3.67 ± 0.23	3.58 ± 0.096	–	–
